The results in this text go back to the supplement of paper PMC11246515.

The data set is described as follows: total protein half-life in vivo (active degradation + dilution); higher = more stable protein.
[1] abbreviates: E. coli NCM3722 delta-clpP delta-lon delta-hslV, growth: N-lim chemostat, doubling time 6 h.
The mark [2] stands for this setting: E. coli NCM3722 delta-clpP, growth: N-lim chemostat, doubling time 6 h.
[3] abbreviates: E. coli NCM3722 delta-hslV, growth: N-lim chemostat, doubling time 6 h.
[4] abbreviates: E. coli NCM3722 delta-lon, growth: N-lim chemostat, doubling time 6 h.
[5] abbreviates: E. coli NCM3722 delta-smpB, growth: N-lim chemostat, doubling time 6 h.
[6] abbreviates: wild type E. coli NCM3722, growth: C-lim chemostat, doubling time 3 h.
The mark [7] stands for this setting: wild type E. coli NCM3722, growth: C-lim chemostat, doubling time 6 h.
Setting [8] is: wild type E. coli NCM3722, growth: C-lim chemostat, doubling time 12 h.
[9] abbreviates: wild type E. coli NCM3722, growth: N-lim chemostat, doubling time 6 h.
[10] abbreviates: wild type E. coli NCM3722, growth: N-lim chemostat, doubling time 12 h.
Setting [11] is: wild type E. coli NCM3722, growth: P-lim chemostat, doubling time 6 h.
Setting [12] is: wild type E. coli NCM3722, growth: P-lim chemostat, doubling time 12 h.

± gives the standard deviation of the averaged measurements.

Take “METKDLIVIGGGINGAGIAADAAGRGLSVLMLEAQDLACATSSASSKLIHGGLRYLEHYEFRLVSEALAEREVLLKMAPHIAFPMRFRLPHRPHLRPAWMIRIGLFMYDHLGKRTSLPGSTGLRFGANSVLKPEIKRGFEYSDCWVDDARLVLANAQMVVRKGGEVLTRTRATSARRENGLWIVEAEDIDTGKKYSWQARGLVNATGPWVKQFFDDGMHLPSPYGIRLIKGSHIVVPRVHTQKQAYILQNEDKRIVFVIPWMDEFSIIGTTDVEYKGDPKAVKIEESEINYLLNVYNTHFKKQLSRDDIVWTYSGVRPLCDDESDSPQAITRDYTLDIHDENGKAPLLSVFGGKLTTYRKLAEHALEKLTPYYQGIGPAWTKESVLPGGAIEGDRDDYAARLRRRYPFLTESLARHYARTYGSNSELLLGNAGTVSDLGEDFGHEFYEAELKYLVDHEWVRRADDALWRRTKQGMWLNADQQSRVSQWLVEYTQQRLSLAS”: the “total protein half-life in vivo” value reads like this: under setting [1], 6.86 ± 0.86 h; under setting [2], 5.96 ± 0.25 h; under setting [3], 2.71 ± 0.75 h; under setting [4], 2.76 ± 0.13 h; under setting [5], 2.4 ± 0.17 h; under setting [6], 2.1 ± 0.094 h. For the same sequence, the “total protein half-life in vivo” value is, setting by setting: under setting [7], 3.51 ± 0.53 h; under setting [8], 4.92 ± 0.65 h; under setting [9], 2.83 ± 0.088 h; under setting [10], 4.179 ± 0.033 h; under setting [11], 2.92 ± 0.053 h; under setting [12], 5.02 ± 0.13 h.

As to “MLELNFSQTLGNHCLTINETLPANGITAIFGVSGAGKTSLINAISGLTRPQKGRIVLNGRVLNDAEKGICLTPEKRRVGYVFQDARLFPHYKVRGNLRYGMSKSMVDQFDKLVALLGIEPLLDRLPGSLSGGEKQRVAIGRALLTAPELLLLDEPLASLDIPRKRELLPYLQRLTREINIPMLYVSHSLDEILHLADRVMVLENGQVKAFGALEEVWGSSVMNPWLPKEQQSSILKVTVLEHHPHYAMTALALGDQHLWVNKLDEPLQAALRIRIQASDVSLVLQPPQQTSIRNVLRAKVVNSYDDNGQVEVELEVGGKTLWARISPWARDELAIKPGLWLYAQIKSVSITA”, the “total protein half-life in vivo” value runs as follows: under setting [1], 5.74 ± 0.84 h; under setting [2], 6.32 ± 1.6 h; under setting [3], 6.25 ± 0.98 h; under setting [4], 5.26 ± 0.55 h; under setting [5], 5.04 ± 0.092 h; under setting [6], 2.76 ± 0.18 h. Further, the “total protein half-life in vivo” value runs as follows: under setting [7], 5.77 ± 0.64 h; under setting [8], 11 ± 1.2 h; under setting [9], 5.676 ± 0.014 h; under setting [10], 10.2 ± 1.3 h; under setting [11], 6.12 ± 0.077 h.

Take “MKCKRLNEVIELLQPAWQKEPDLNLLQFLQKLAKESGFDGELADLTDDILIYHLKMRDSAKDAVIPGLQKDYEEDFKTALLRARGVIKE [P0ADP9]”: the “total protein half-life in vivo” value runs as follows: under setting [1], 6.97 ± 1.2 h; under setting [2], 4.97 ± 0.93 h; under setting [3], 3.81 ± 0.33 h; under setting [4], 3.98 ± 0.12 h; under setting [5], 3.12 ± 0.3 h; under setting [7], 4.76 ± 0.47 h. Further, the “total protein half-life in vivo” value was 7.3 ± 1.9 h under setting [8]; 2.74 ± 0.051 h under setting [9]; 8.19 ± 5.8 h under setting [10]; 5.01 ± 1.1 h under setting [11]; 11.2 ± 0.38 h under setting [12].

For “MKYRIALAVSLFALSAGSYATTLCQEKEQNILKEISYAEKHQNQNRIDGLNKALSEVRANCSDSQLRADHQKKIAKQKDEVAERQQDLAEAKQKGDADKIAKRERKLAEAQEELKKLEARDY”, the “total protein half-life in vivo” value by setting is: under setting [1], 3.72 ± 0.12 h; under setting [2], 3.7 ± 0.11 h; under setting [4], 5.2 ± 0.22 h; under setting [5], 4.66 ± 0.41 h; under setting [7], 5.88 h; under setting [8], 7.58 ± 0.055 h. Besides, the “total protein half-life in vivo” value is, setting by setting: under setting [9], 5.07 ± 1.1 h; under setting [10], 9.61 ± 1.1 h; under setting [11], 4.12 h; under setting [12], 10.6 h.

For the sequence “MTEMAKGSVTHQRLIALLSQEGADFRVVTHEAVGKCEAVSEIRGTALGQGAKALVCKVKGNGVNQHVLAILAADQQADLSQLASHIGGLRASLASPAEVDELTGCVFGAIPPFSFHPKLKLVADPLLFERFDEIAFNAGMLDKSVILKTADYLRIAQPELVNFRRTA”, the “total protein half-life in vivo” value is, setting by setting: under setting [1], 5.051 ± 0.048 h; under setting [2], 7.68 h; under setting [3], 3.84 ± 0.28 h; under setting [4], 5.17 ± 0.12 h; under setting [5], 3.6 ± 0.12 h; under setting [6], 3.19 ± 0.52 h. For the same sequence, the “total protein half-life in vivo” value stood at 4.895 ± 0.03 h under setting [7]; 8.13 ± 0.88 h under setting [8]; 3.564 ± 0.0078 h under setting [9]; 5.88 ± 0.3 h under setting [10]; 4.71 ± 0.58 h under setting [11]; 8.83 ± 0.85 h under setting [12].

With “MSKRRYLTGKEVQAMMQAVCYGATGARDYCLILLAYRHGMRISELLDLHYQDLDLNEGRINIRRLKNGFSTVHPLRFDEREAVERWTQERANWKGADRTDAIFISRRGSRLSRQQAYRIIRDAGIEAGTVTQTHPHMLRHACGYELAERGADTRLIQDYLGHRNIRHTVRYTASNAARFAGLWERNNLINEKLKREEV [P0ADH7]”, the “total protein half-life in vivo” value runs as follows: under setting [1], 4.85 ± 0.3 h; under setting [5], 1.18 h; under setting [6], 0.333 h.

Regarding “MSVPVQHPMYIDGQFVTWRGDAWIDVVNPATEAVISRIPDGQAEDARKAIDAAERAQPEWEALPAIERASWLRKISAGIRERASEISALIVEEGGKIQQLAEVEVAFTADYIDYMAEWARRYEGEIIQSDRPGENILLFKRALGVTTGILPWNFPFFLIARKMAPALLTGNTIVIKPSEFTPNNAIAFAKIVDEIGLPRGVFNLVLGRGETVGQELAGNPKVAMVSMTGSVSAGEKIMATAAKNITKVCLELGGKAPAIVMDDADLELAVKAIVDSRVINSGQVCNCAERVYVQKGIYDQFVNRLGEAMQAVQFGNPAERNDIAMGPLINAAALERVEQKVARAVEEGARVAFGGKAVEGKGYYYPPTLLLDVRQEMSIMHEETFGPVLPVVAFDTLEDAISMANDSDYGLTSSIYTQNLNVAMKAIKGLKFGETYINRENFEAMQGFHAGWRKSGIGGADGKHGLHEYLQTQVVYLQS”, the “total protein half-life in vivo” value under setting [1] was 4.75 ± 0.26 h; the “total protein half-life in vivo” value under setting [2] is 4.93 ± 1 h; the “total protein half-life in vivo” value under setting [3] is 3.81 ± 0.14 h; the “total protein half-life in vivo” value under setting [4] was found to be 4.56 ± 0.062 h; the “total protein half-life in vivo” value under setting [5] was 4.55 ± 0.52 h; the “total protein half-life in vivo” value under setting [6] was determined as 3.19 ± 0.26 h. In addition, the “total protein half-life in vivo” value reads like this: under setting [7], 5.86 ± 0.33 h; under setting [8], 10.24 ± 0.092 h; under setting [9], 4.82 ± 1.6 h; under setting [10], 5.01 ± 1.9 h; under setting [11], 5.871 ± 0.049 h; under setting [12], 11.3 ± 0.13 h.
